From EP3848397A1 (NANJING UMAB-BIOPHARMA CO., LTD., dated 2021)
Where two headings read alike, the source gives them in different places.

What was measured:
Test in all cases: cell-based or functional assay
[1] = molecular target: T1, OX40 on Jurkat-OX40-NFκB-luciferase reporter cells (UniProt P43489 29-277)
T1 sequence (looked up): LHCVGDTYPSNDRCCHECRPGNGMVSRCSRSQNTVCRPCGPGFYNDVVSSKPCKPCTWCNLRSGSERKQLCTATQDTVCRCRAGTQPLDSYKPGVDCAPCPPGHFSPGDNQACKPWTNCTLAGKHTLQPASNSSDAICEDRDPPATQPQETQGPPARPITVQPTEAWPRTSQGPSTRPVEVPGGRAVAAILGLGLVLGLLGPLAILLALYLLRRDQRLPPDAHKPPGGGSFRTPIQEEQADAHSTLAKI

[2] = molecular target: T1, OX40 on Jurkat-OX40-NFκB-luciferase …; remark: listed apart in the source
[3] = molecular target: T1, OX40 on Jurkat-OX40-NFκB-luciferase …; remark: listed apart in the source

B1: MT01-C1 (antibody, human IgG1, V domains shown)
VH: EVQLVQSGAEVKKPGESLKISCKASGYTFTSYVMHWLRQMPGKGLEWMGYINPYNDGTKYNEKFKGQVTISSDKSISTAYLQWSSLKASDTAMYYCANYYGSKFAMDYWGQGTMVTVSS
VL: DIQMTQSPSSVSASVGDRVTITCRASQDISNYLSWYQQKPGGAVKLLIYYTSRLHSGVPSRFSGSGSGTDYTLTISSLQPEDFATYFCQQGITLPWTFGQGTKVEIK
EC50 of NFκB-luciferase reporter activation (FcR-mediated) [1]: 0.0452 ng/mL
Activation activity of OX40 signaling pathway, EC50 [2]: 0.178 nM
Activation activity of OX40 signaling pathway, EC50 [3]: 0.325 nM
